According to patent US11969464B2, “Amidated peptides and their deamidated counterparts displayed by HLA-A*02 for use in immunotherapy against different types of cancers” (Immatics Biotechnologies GmbH, priority 2020, dated 2024):

Legend:
HLA-A*02:01 = HLA-A*02:01 (Homo sapiens, UniProt P04439, D140Y/D185E/D98H/E176V/E277Q/G131W/G231S/I119V/I121R/I166T/I218V/L300P/L318F/N151K/N90K/P208A/P217A/Q86G/Q94H/R138H/R169H/T345S); experiment: MHC binding assay (UV-ligand exchange, anti-β2m ELISA); conditions: peptide exchange yield, binding to HLA-A*02:01
Excerpt: Candidate peptides for T cell based therapies according to the present invention were further tested for their MHC binding capacity (affinity). The individual peptide-MHC complexes were produced by UV-ligand exchange, where a UV-sensitive peptide is cleaved upon UV-irradiation and exchanged with the peptide of interest as analyzed. Only peptide candidates that can effectively bind and stabilize the peptide-receptive MHC molecules prevent dissociation of the MHC complexes. To determine the yield of the exchange reaction, an ELISA was performed based on the detection of the light chain (β2m) of stabilized MHC complexes. The assay was performed as generally described in Rodenko et al. (Rodenko et al., 2006).
96 well MAXISorp plates (NUNC) were coated over night with 2 μg/ml streptavidin in PBS at room temperature, washed 4× and blocked for 1 h at 37° C. in 2% BSA containing blocking buffer. Refolded HLA-A*02:01/MLA-001 monomers served as standards, covering the range of 15-500 ng/ml. Peptide-MHC monomers of the UV-exchange reaction were diluted 100-fold in blocking buffer. Samples were incubated for 1 h at 37° C., washed four times, incubated with 2 μg/ml HRP conjugated anti-β2m for 1 h at 37° C., washed again and detected with TMB solution that is stopped with […]. Absorption was measured at 450 nm. Candidate peptides that show a high exchange yield (preferably higher than 50%, most preferred higher than 75%) are generally preferred for a generation and production of antibodies or fragments thereof, and/or T cell receptors or fragments thereof, as they show sufficient avidity to the MHC molecules and prevent dissociation of the MHC complexes.

CD8+ T cells = experiment: In vitro T cell priming assay with aAPCs loaded with peptide/MHC complexes and anti-CD28, pMHC multimer readout; assay type: cell-based, human; conditions: percentage of positive wells and donors (among evaluable), healthy HLA-A*02+ donors
Excerpt: In order to obtain information regarding the immunogenicity of the TUMAPs of the present invention, the inventors performed investigations using an in vitro T cell priming assay based on repeated stimulations of CD8+ T cells with artificial antigen presenting cells (aAPCs) loaded with peptide/MHC complexes and anti-CD28 antibody.
In order to perform in vitro stimulations by artificial antigen presenting cells loaded with peptide-MHC complex (pMHC) and anti-CD28 antibody, the inventors first isolated CD8+ T cells from fresh HLA-A*02 leukapheresis products via positive selection using CD8 microbeads (Miltenyi Biotec, Bergisch-Gladbach, Germany) of healthy donors obtained from the University clinics Mannheim, Germany, after informed consent.
PBMCs and isolated CD8+ lymphocytes were incubated in T cell medium (TCM) until use consisting of RPMI-Glutamax (Invitrogen, Karlsruhe, Germany) supplemented with 10% heat inactivated human AB serum (PAN-Biotech, Aidenbach, Germany), 100 U/ml Penicillin/100 μg/ml Streptomycin (Cambrex, Cologne, Germany), 1 mM sodium pyruvate (CC Pro, Oberdorla, Germany), 20 μg/ml Gentamycin (Cambrex). 2.5 ng/ml IL-7 (PromoCell, Heidelberg, Germany) and 10 U/ml IL-2 (Novartis Pharma, Nurnberg, Germany) were also added to the TCM at this step.
Generation of pMHC/anti-CD28 coated beads, T cell stimulations and readout was performed in a highly defined in vitro system using four different pMHC molecules per stimulation condition and 8 different pMHC molecules per readout condition.
The purified co-stimulatory mouse IgG2a anti human CD28 Ab 9.3 (Jung et al., 1987) was chemically biotinylated using Sulfo-N-hydroxysuccinimidobiotin as recommended by the manufacturer (Perbio, Bonn, Germany). Beads used were 5.6 μm diameter streptavidin coated polystyrene particles (Bangs Laboratories, Illinois, USA).
800.000 beads/200 μl were coated in 96-well plates in the presence of 4×12.5 ng different biotin-pMHC, washed and 600 ng biotin anti-CD28 were added subsequently in a volume of 200 μl. Stimulations were initiated in 96-well plates by co-incubating 1×10^6 CD8+ T cells with 2×10^5 washed coated beads in 200 μl TCM supplemented with 5 ng/ml IL-12 (PromoCell) for 3 days at 37° C. Half of the medium was then exchanged by fresh TCM supplemented with 80 U/ml IL-2 and incubating was continued for 4 days at 37° C. This stimulation cycle was performed for a total of three times. For the pMHC multimer readout using 8 different pMHC molecules per condition, a two-dimensional combinatorial coding approach was used as previously described (Andersen et al., 2012) with minor modifications encompassing coupling to 5 different fluorochromes. Finally, multimeric analyses were performed by staining the cells with Live/dead near IR dye (Invitrogen, Karlsruhe, Germany), CD8-FITC antibody clone SK1 (BD, Heidelberg, Germany) and fluorescent pMHC multimers. For analysis, a BD LSRII SORP cytometer equipped with appropriate lasers and filters was used. Peptide specific cells were calculated as percentage of total CD8+ cells. Evaluation of multimeric analysis was done using the FlowJo software (Tree Star, Oregon, USA). In vitro priming of specific multimer+CD8+ lymphocytes was detected by comparing to negative control stimulations.

| Substance | Peptide exchange (HLA-A*02:01) | Wells positive [%] (CD8+ T cells) |
| --- | --- | --- |
| 7 (ALADLTGTV; peptide displayed by HLA-A*02) [compound 7] | ++++ (≥75% = ++++) | + (<20% = +) |
| 65 (ILLDKSTVL; peptide displayed by HLA-A*02) [compound 65] | ++++ (≥75% = ++++) | + (<20% = +) |
| 97 (KLLDGSQRV; peptide displayed by HLA-A*02) [compound 97] | +++ (≥50% = +++) | + (<20% = +) |
| 6 (NLYNDLTNV; peptide displayed by HLA-A*02) [compound 6] | +++ (≥50% = +++) | + (<20% = +) |
| 96 (KLDASLPAL; peptide displayed by HLA-A*02) [compound 96] | ++++ (≥75% = ++++) | + (<20% = +) |
| 47 (VIDSTLVKV; peptide displayed by HLA-A*02) [compound 47] | +++ (≥50% = +++) | ++ (20%-49% = ++) |
| 8 (KLAPDLTEL; peptide displayed by HLA-A*02) [compound 8] | +++ (≥50% = +++) | + (<20% = +) |
| 101 (TLDATVVEL; peptide displayed by HLA-A*02) [compound 101] | ++++ (≥75% = ++++) | ++ (20%-49% = ++) |
| 98 (NLLADVSTV; peptide displayed by HLA-A*02) [compound 98] | +++ (≥50% = +++) | + (<20% = +) |
| 100 (SLLFQDITL; peptide displayed by HLA-A*02) [compound 100] | ++++ (≥75% = ++++) | + (<20% = +) |
| 92 (YLADFSHAT; peptide displayed by HLA-A*02) [compound 92] | ++++ (≥75% = ++++) | – |
| 95 (KLAPEDLADLTAL; peptide displayed by HLA-A*02) [compound 95] | ++++ (≥75% = ++++) | – |
| 44 (LLDATHQI; peptide displayed by HLA-A*02) [compound 44] | ++++ (≥75% = ++++) | – |
| 60 (TLDITIVNL; peptide displayed by HLA-A*02) [compound 60] | ++++ (≥75% = ++++) | – |
| 19 (RLLDTTDVYLL; peptide displayed by HLA-A*02) [compound 19] | ++++ (≥75% = ++++) | – |
| 32 (ALADLTGTVVNL; peptide displayed by HLA-A*02) [compound 32] | ++++ (≥75% = ++++) | – |
| 66 (LLDDQTVTF; peptide displayed by HLA-A*02) [compound 66] | +++ (≥50% = +++) | – |

| Substance | Peptide exchange (HLA-A*02:01) | Wells positive [%] (CD8+ T cells) |
| --- | --- | --- |
| 77 (YLHGFDLSL; peptide displayed by HLA-A*02) [compound 77] | ++++ (≥75% = ++++) | – |
| 99 (NLLDHSSMFL; peptide displayed by HLA-A*02) [compound 99] | ++++ (≥75% = ++++) | – |
| 76 (SLLRDFTLV; peptide displayed by HLA-A*02) [compound 76] | ++++ (≥75% = ++++) | + (<20% = +) |
| 67 (LLDTTDVYL; peptide displayed by HLA-A*02) [compound 67] | +++ (≥50% = +++) | – |
| 43 (KLLNDLTSI; peptide displayed by HLA-A*02) [compound 43] | ++++ (≥75% = ++++) | – |
| 84 (KMLDETVLV; peptide displayed by HLA-A*02) [compound 84] | +++ (≥50% = +++) | – |
| 49 (ALDDYTITF; peptide displayed by HLA-A*02) [compound 49] | ++++ (≥75% = ++++) | – |
| 69 (SLLDENDVSSYL; peptide displayed by HLA-A*02) [compound 69] | ++++ (≥75% = ++++) | – |
| 25 (FMNDRSFIL; peptide displayed by HLA-A*02) [compound 25] | ++++ (≥75% = ++++) | – |
| 20 (SLFAYPLPDV; peptide displayed by HLA-A*02) [compound 20] | ++++ (≥75% = ++++) | – |
| 1 (ILDSTTIEI; peptide displayed by HLA-A*02) [compound 1] | ++++ (≥75% = ++++) | – |
| 59 (SQTDLSPAL; peptide displayed by HLA-A*02) [compound 59] | ++++ (≥75% = ++++) | – |
| 24 (QLLGRDISL; peptide displayed by HLA-A*02) [compound 24] | ++++ (≥75% = ++++) | – |
| 37 (AIDDTAARL; peptide displayed by HLA-A*02) [compound 37] | +++ (≥50% = +++) | – |
| 80 (ALDSSLQLL; peptide displayed by HLA-A*02) [compound 80] | ++++ (≥75% = ++++) | – |
| 40 (FLDQTDETL; peptide displayed by HLA-A*02) [compound 40] | +++ (≥50% = +++) | – |
| 18 (ILDEAKDISF; peptide displayed by HLA-A*02) [compound 18] | +++ (≥50% = +++) | – |
